{"source": "the nanobody polyreactivity screen of Harvey et al. (2022)"}
{"test": "yeast display, Sf9 membrane polyspecificity reagent, FACS + sequencing; frameworks hold sequencing errors", "outline": "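Galactose-induced (36–48 hours) yeast carrying a synthetic nanobody display library were exposed to 10% biotinylated, detergent-solubilized Sf9 membrane reagent at 4 °C for 1 hour. FACS followed streptavidin microbead enrichment, using low and high (top ~1%) gates for expression (anti-HA) and reagent binding (streptavidin). Colony PCR, MiSeq 2 × 250 sequencing and CDR-length filtering followed. Labels for polyreactivity reflect the gate of origin.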"}
{"sequence": "QVQLVESGGGLVQAGGSLRLSCAASGRIFTSYAMGWYRQAPGKERELVAAITSGGRTYYADSVKGRFTISRDNAKNTVYLQKNSLKAEDTAVYYCNAPRYLRYNYCGQGTQVTVSS", "polyreactivity (PSR sort gate)": "high polyreactivity"}
{"sequence": "QVQLVESGGGLVQAGGSLRLSCAASGRIFTSYVMGWDRQAPGKERELVAAITRSGGSTYYADSVKGRFTISRDNAKNTVYLQMNSQKPEDTAVYYCAAGVRGGGGRYRYGYWGQGTQVTVSS", "polyreactivity (PSR sort gate)": "high polyreactivity"}
{"sequence": "QVQLVESGGGLVQAGGSLRLSCAASGRIFTTNAMGWYRQAPGIERELVAAITYSGGTTYYADSVKGRFTISRDNAKNTVYFQMNSLKPEDTAVYYCAADVKFSPPYDYWGQGTQVTVSS", "polyreactivity (PSR sort gate)": "low polyreactivity"}
{"sequence": "QVQLVESGGGLVQAGGSLRLSCAASGRIFTTNAMGWYRQAPGKDRELVAAITYSGGTTYYADSVKGRFTISRDNAKNTVYLEMNSLKPEDTAVYYCAADVKFSTPYDYWGQGTQVTVSS", "polyreactivity (PSR sort gate)": "low polyreactivity"}
{"sequence": "QVQLVESGGGLVQAGGSLRLSCAASGRIFTVFGMGWYRQAPGKERELVAAISWSGGGTYYADSVKGRFTISRDNAKNTVYLQMNSLKPEDTAVYYCNAVRQYTWSLVFFSSDYDYWGQGTQVTVSS", "polyreactivity (PSR sort gate)": "low polyreactivity"}
{"sequence": "QVQLVESGGGLVQAGGSLRLSCAASGRIFTWNAMGWYRQAPGKERELVASISRSGTSTYYADSVKGRFTISRDNAKNTVYLQMNSLKPEDTAVYYCNARTIYYYFRLSTPYNYWGQGTQVTVSS", "polyreactivity (PSR sort gate)": "high polyreactivity"}
{"sequence": "QVQLVESGGGLVQAGGSLRLSCAASGRIFTWYAMGWYRTAPGKERELVATITGDGNTYYADSVKGRFTISRDNAKNTVYLQMKSLKPEDTAVYYCNRYGYFRYRWGKYEYWGQGTQVTVSS", "polyreactivity (PSR sort gate)": "high polyreactivity"}
{"sequence": "QVQLVESGGGLVQAGGSLRLSCAASGRIFTYNAMGWYRQAPGKERELVAAITRGGTTNYADSVKGRFTISRDNAKNTVYLQMNSLKPEDTAVYYCARAGAHPWWSRSTMYYWGQGTQVTVSS", "polyreactivity (PSR sort gate)": "low polyreactivity"}
{"sequence": "QVQLVESGGGLVQAGGSLRLSCAASGRIFTYNAMGWYRQAPGKERELVATITWRGGGTYYADSVKGRFTISRDNAKNTVYLQMNSLKPEDTAVYYCNRRLPGDGQYGYRRYDYWGQGTQVTVSS", "polyreactivity (PSR sort gate)": "low polyreactivity"}
{"sequence": "QVQLVESGGGLVQAGGSLRLSCAASGRIFTYNAMGWYRQAPGKERELVAVISRRGGSTYYADSVKGRFTSSRDNAKNPVYLQMNSLTPEDSAVYYCAADLPSYPYEYWGQGPQVTVSS", "polyreactivity (PSR sort gate)": "low polyreactivity"}
{"sequence": "QVQLVESGGGLVQAGGSLRLSCAASGRIFTYNAMVWYRQAPGKERELVAVITSGGSTYYADSVKGRFTISRDNAKNTVYLQMNSLKPEDTAVYYCAARVWGSSQYYYWGQGTQVTVSS", "polyreactivity (PSR sort gate)": "low polyreactivity"}
{"sequence": "QVQLVESGGGLVQAGGSLRLSCAASGRIFTYYAKGWYRQPPGKERELVAVISSVGGTYYADSVKGRFTISRDNAKNTVYLQMNSLKPEDTAVYYCAALSDSRWHRFGYWGQGTQVTVSS", "polyreactivity (PSR sort gate)": "high polyreactivity"}
{"sequence": "QVQLVESGGGLVQAGGSLRLSCAASGRIFTYYAMGWYRQAPGKERELVAAISTRGGNTYYADSVKGRFTISRDNAKNSVYLQMNSLKPEDTAVYYCSKENYYGGGFDYWGQGTQVTVSS", "polyreactivity (PSR sort gate)": "high polyreactivity"}
{"sequence": "QVQLVESGGGLVQAGGSLRLSCAASGRIFTYYAMGWYRQAPGKERELVATICSSGSTNYADSVKGRFTISRDNAKNTVYLQMNSLKPEDTAVYYCAKKTRRRYDVKYDYWGQGTQVTVSS", "polyreactivity (PSR sort gate)": "low polyreactivity"}
{"sequence": "QVQLVESGGGLVQAGGSLRLSCAASGRIFTYYAMGWYRQAPGKERQLVAAISSGTGTNYADSVKGRFTNSRDNAKNTVYLQMNSLKPEDTAVYDCAADRQHVVVGYYYWGQGTQVTVSS", "polyreactivity (PSR sort gate)": "low polyreactivity"}
{"sequence": "QVQLVESGGGLVQAGGSLRLSCAASGRIFTYYTMGWYRQAPGKERELVAANDSGSSTYYADSVKGRFTISRDNAKNTVYLQMNSLKPEDTAVYYCAADGVRSLVRRGYWFDYWGQGTQVTVSS", "polyreactivity (PSR sort gate)": "low polyreactivity"}
{"sequence": "QVQLVESGGGLVQAGGSLRLSCAASGRIFVANAMGWYRQAPGKERELVAAISRRGGRTYYADSVKGRFTISRDNAKNTVYLQMNSLKPEDTAVYYCARVPTRAEDVAGWTGMDYWGQGTQVTVSS", "polyreactivity (PSR sort gate)": "high polyreactivity"}
{"sequence": "QVQLVESGGGLVQAGGSLRLSCAASGRIFVDNAMGWYRQAPGKERELVATITSTGSTNYADSVKGRFTISRDNAKNTVYLQMNSLKPEDTAVYYCADGYYPYWGQGTQVTVSS", "polyreactivity (PSR sort gate)": "low polyreactivity"}
{"sequence": "QVQLVESGGGLVQAGGSLRLSCAASGRIFVDNTMGWYRPAPGKERELVAAISRRGTSTYYADSVKGRSTISRDNAKNTVYLQMNSLKPEDTAVYYCAADYYYYDSQQGMDYWGQGTQVTVSS", "polyreactivity (PSR sort gate)": "high polyreactivity"}
{"sequence": "QVQLVESGGGLVQAGGSLRLSCAASGRIFVGYAMGRNIQAPGKERELVAAISRDGDNTFYADSVKGRFTISRDNAKNTVYLQMNSLKPEDTAVYYCAVDYWVWSCSAYAYDYYWGQVTQVTVSS", "polyreactivity (PSR sort gate)": "low polyreactivity"}
{"sequence": "QVQLVESGGGLVQAGGSLRLSCAASGRIFVGYAMGWSRQAPGKERELVASITRSAGRTFYADSVKGRFTISRDNAKNTVYLQMNSLKPEDTAVYYCNARYWKGYNGYLRSTRRDDYWGQGTQVTVSS", "polyreactivity (PSR sort gate)": "high polyreactivity"}
{"sequence": "QVQLVESGGGLVQAGGSLRLSCAASGRIFVHNAMGWYRQAPGKERELVAAISQNGGRTYYADSVKGRFTISRDNAKNTVYLQMNSLIPEDTAVYYCAAGQARAGLIGGYWGQGTQVTVSS", "polyreactivity (PSR sort gate)": "high polyreactivity"}
{"sequence": "QVQLVESGGGLVQAGGSLRLSCAASGRIFVHNAMGWYRQAPGKERELVAAISSGGSTYYADSVKGRFTISRDNAKNTVYLQMNSLKPEDTAVYYCAKYAYYKKYDYWGQGTQVTVSS", "polyreactivity (PSR sort gate)": "high polyreactivity"}
{"sequence": "QVQLVESGGGLVQAGGSLRLSCAASGRIFVHYAMGWYRQAPGKERELVAAISWNGGRTFYADSVKGRFTISRDNEKYTVYLQMNSLKPEDTAVYYCAALSRYSLDYWGQGTQVTVSS", "polyreactivity (PSR sort gate)": "high polyreactivity"}
{"sequence": "QVQLVESGGGLVQAGGSLRLSCAASGRIFVIYAMGWYRQAPGKERELVASIRSSSTYYADSVKGRFTISRDNAKNTVYLQMNSLKPEDTAVYYCAAVAEYRGYDYWGQGTQVTVSS", "polyreactivity (PSR sort gate)": "low polyreactivity"}
{"sequence": "QVQLVESGGGLVQAGGSLRLSCAASGRIFVIYAMGWYRQAPGTERELVAAITARGSNTYYADSVKGRFTISRDNAKNTVYLQMNSLKPEDTAVYYCNAEARSYRYPYNYWGQGTQVTVSS", "polyreactivity (PSR sort gate)": "high polyreactivity"}
{"sequence": "QVQLVESGGGLVQAGGSLRLSCAASGRIFVIYGMGWYRQAPGKERELVAAIRWTGGSTYYADSVKGRFTISRDNAQNTVYLQMNSLQPEDTAVYYCNAGSDRAIWPTHDYWGQGTQVTVSS", "polyreactivity (PSR sort gate)": "low polyreactivity"}
{"sequence": "QVQLVESGGGLVQAGGSLRLSCAASGRIFVIYGRGWYRPAPGKERELVATISWSGSSTSYADSVKGRFTISRDNAKNTVYLQMNSLKPEDTAVYYCAAYTWYSRHRMNYWGQGTQVTVSS", "polyreactivity (PSR sort gate)": "high polyreactivity"}
{"sequence": "QVQLVESGGGLVQAGGSLRLSCAASGRIFVKNAMGWYRQAPGKERELVAAISRGGSTYYADSEKGRFTISRDNAKITVYLQMNSLKPEDTAVYNCAPGGQGGDFGDDYWGQGTQVTVSS", "polyreactivity (PSR sort gate)": "high polyreactivity"}
{"sequence": "QVQLVESGGGLVQAGGSLRLSCAASGRIFVKNAMGWYRQAPGKERELVAGISRGGSTYYADSVKGRFTISRDNAKNTVYLQMYSLKPEDTAVYYCATRNYGRGQFDYWGQGSQVTVSS", "polyreactivity (PSR sort gate)": "high polyreactivity"}
{"sequence": "QVQLVESGGGLVQAGGSLRLSCAASGRIFVKYAMGWYRQAPGKERELVAAIRSGGSTYYADSVKGRFTISRDNAKNTVYLQMNSLKPEDTAVYDCAADRNKHHYYTEPYDYWGQGTQVTVSS", "polyreactivity (PSR sort gate)": "low polyreactivity"}
{"sequence": "QVQLVESGGGLVQAGGSLRLSCAASGRIFVKYAMGWYRQAPGKEREMVAAISASGGGTYYADSVKGRFTISRDNAKNTVYLQMNSLNPVDTAVYYFNADFRYPGQVPSYVTYDYWGQGTQVNVSS", "polyreactivity (PSR sort gate)": "low polyreactivity"}
{"sequence": "QVQLVESGGGLVQAGGSLRLSCAASGRIFVKYVMGWYRQAPGKERELVAAISSRGGSTYYADSVKGRFTSSRDNAKNTVYLQMNSLKPEDTAVYYCNKAFTARDDYWGQGTQVTVSS", "polyreactivity (PSR sort gate)": "high polyreactivity"}
{"sequence": "QVQLVESGGGLVQAGGSLRLSCAASGRIFVKYVMGWYRQAPGKERELVAAITYTGGTYYADSVKGRFTISRDTAKNTVYLQMNSLKPEETAVYYCAADYQGSYYSGSYQTWTEYYYWGQGTQVTVSS", "polyreactivity (PSR sort gate)": "high polyreactivity"}
{"sequence": "QVQLVESGGGLVQAGGSLRLSCAASGRIFVNYAMGWYRQAPGKERELVAVISRSGGGTNYADSVKGRFTISRDNAKNTVYLQMNSLKPEDTAVYYCNRVYALTYYAKYGYDYWGQGTQVTVSS", "polyreactivity (PSR sort gate)": "high polyreactivity"}
{"sequence": "QVQLVESGGGLVQAGGSLRLSCAASGRIFVPNAMGWYRQAPGKERELVAAITRSGSTYYADSVKGRFTISRDNAKNTVYLQMNSLKPEDTAVYYCAADYYYPSQMDSWGQGTQVTVSS", "polyreactivity (PSR sort gate)": "low polyreactivity"}
{"sequence": "QVQLVESGGGLVQAGGSLRLSCAASGRIFVPNAMGWYRQAPGKERELVAAITRSGSTYYADSVKGRFTISRDNAKNTVYLQMNSLKPEDTAVYYCNAASRRFPGKVWDYHYWGQGTQVTVSS", "polyreactivity (PSR sort gate)": "low polyreactivity"}
{"sequence": "QVQLVESGGGLVQAGGSLRLSCAASGRIFVPYAMGWSRQAPGKEREFVAAISWNTGSTYYADSVKGRFTISRDNAKNTVYLQMNSLNPVDTAVYYCAAGSGVSYEGGYKINGYWGQGTQVTVSS", "polyreactivity (PSR sort gate)": "high polyreactivity"}
{"sequence": "QVQLVESGGGLVQAGGSLRLSCAASGRIFVPYAMGWYRQAPGKERELVAAISWNTGSTYYADSVKGRFTISRDNAKNTVYLQMNSLKPEDTAVYYCAAGSRVRYDGGYKINGYWGQGTQVTVSS", "polyreactivity (PSR sort gate)": "high polyreactivity"}
{"sequence": "QVQLVESGGGLVQAGGSLRLSCAASGRIFVRNAMGWYRQAPGKEMEFVAAISRSGGSTYYADSVKGRFTISRDNAKNTVYLQMNSLKPEDTAVYYCAADYPKTYTSKFNYWGQGTQVTVSS", "polyreactivity (PSR sort gate)": "high polyreactivity"}
{"sequence": "QVQLVESGGGLVQAGGSLRLSCAASGRIFVRNAMGWYRQAPGKEREFVAAISRSGGSTYYADSVKGRFTISRDNAKNTVYLQMNSLKPEDTAVYYCAADYPKTYTSKFNYWGQGTQVTVSS", "polyreactivity (PSR sort gate)": "high polyreactivity"}
{"sequence": "QVQLVESGGGLVQAGGSLRLSCAASGRIFVRNAMGWYRQAPGKERELVAAISRSGGSTSYADSVKGRFTISRDNAKNTVYLQMNSLKPEDTAVYYCAARYARYQYQYDYWGQGTQVTVSS", "polyreactivity (PSR sort gate)": "high polyreactivity"}
{"sequence": "QVQLVESGGGLVQAGGSLRLSCAASGRIFVRNTMGWYRQAPGKERELVAAINSGGSTYYADSVKGRFTISRDNENNTVYLQMNSLKPEDTAVYYCAGQFYLFYEYDYWGQGTQVTVSS", "polyreactivity (PSR sort gate)": "high polyreactivity"}
